Laboratory results: the supplement of paper PMC9112550, “Optimization of the antimicrobial peptide Bac7 by deep mutational scanning” (BMC Biology, 2022)

system: Escherichia coli TOP10; assay: shrunken log2 fold change of peptide-encoding DNA abundance (4.5 h post-induction vs induction); higher = less antimicrobial activity (less host growth inhibition); details: time post-induction: 4.5 h; library: site-saturation at positions 5, 18, 19, 20
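Also: peptides expressed intracellularly from a pBAD plasmid library in pooled LB shake-flask culture, induced with 0.3% L-arabinose, DNA abundance read by NGS, three biological replicates, DESeq2 with apeglm shrinkage.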

| Sequence | shrunken log2 fold change |
| --- | --- |
| RRIRHRPPRLPRPRPRPRNGPRP | -0.0288 |
| RRIRHRPPRLPRPRPRPRSTPRP | -0.00721 |
| RRIRHRPPRLPRPRPRPRTFPRP | 0.147 |
| RRIRHRPPRLPRPRPRPRTGPRP | -0.111 |
| RRIRHRPPRLPRPRPRPRTPPRP | 0.314 |
| RRIRHRPPRLPRPRPRPRVEPRP | 0.0973 |
| RRIRHRPPRLPRPRPRPRVWPRP | 0.534 |
| RRIRHRPPRLPRPRPRPRWHPRP | 0.102 |
| RRIRHRPPRLPRPRPRPSAAPRP | 0.334 |
| RRIRHRPPRLPRPRPRPSAEPRP | 0.217 |
| RRIRHRPPRLPRPRPRPSAKPRP | -0.324 |
| RRIRHRPPRLPRPRPRPSCKPRP | -0.609 |
| RRIRHRPPRLPRPRPRPSDIPRP | -0.978 |
| RRIRHRPPRLPRPRPRPSDVPRP | -0.042 |
| RRIRHRPPRLPRPRPRPSFQPRP | -0.652 |
| RRIRHRPPRLPRPRPRPSFSPRP | -0.483 |
| RRIRHRPPRLPRPRPRPSGHPRP | -0.172 |
| RRIRHRPPRLPRPRPRPSIMPRP | -0.423 |
| RRIRHRPPRLPRPRPRPSKMPRP | -0.858 |
| RRIRHRPPRLPRPRPRPSLQPRP | -0.0974 |
| RRIRHRPPRLPRPRPRPSLWPRP | 0.257 |
| RRIRHRPPRLPRPRPRPSPDPRP | -0.293 |
| RRIRHRPPRLPRPRPRPSPRPRP | 0.0803 |
| RRIRHRPPRLPRPRPRPSPSPRP | 0.00467 |
| RRIRHRPPRLPRPRPRPSQGPRP | 0.0306 |

| Sequence | shrunken log2 fold change |
| --- | --- |
| RRIRHRPPRLPRPRPRPSRPPRP | 0.323 |
| RRIRHRPPRLPRPRPRPSSGPRP | -0.427 |
| RRIRHRPPRLPRPRPRPSSNPRP | -0.399 |
| RRIRHRPPRLPRPRPRPSTDPRP | -0.406 |
| RRIRHRPPRLPRPRPRPSTEPRP | -0.168 |
| RRIRHRPPRLPRPRPRPSVGPRP | 0.319 |
| RRIRHRPPRLPRPRPRPSVSPRP | -0.0167 |
| RRIRHRPPRLPRPRPRPSYKPRP | -0.0553 |
| RRIRHRPPRLPRPRPRPTAAPRP | 0.518 |
| RRIRHRPPRLPRPRPRPTAEPRP | 0.056 |
| RRIRHRPPRLPRPRPRPTAHPRP | -0.173 |
| RRIRHRPPRLPRPRPRPTDCPRP | 0.038 |
| RRIRHRPPRLPRPRPRPTEIPRP | 0.0223 |
| RRIRHRPPRLPRPRPRPTFSPRP | -0.22 |
| RRIRHRPPRLPRPRPRPTISPRP | -0.495 |
| RRIRHRPPRLPRPRPRPTKMPRP | 0.0724 |
| RRIRHRPPRLPRPRPRPTLSPRP | -0.17 |
| RRIRHRPPRLPRPRPRPTMMPRP | -0.503 |
| RRIRHRPPRLPRPRPRPTMWPRP | 0.22 |
| RRIRHRPPRLPRPRPRPTNNPRP | -0.467 |
| RRIRHRPPRLPRPRPRPTQGPRP | 0.318 |
| RRIRHRPPRLPRPRPRPTQRPRP | 0.462 |
| RRIRHRPPRLPRPRPRPTRGPRP | 0.0497 |
| RRIRHRPPRLPRPRPRPTSHPRP | -0.837 |
| RRIRHRPPRLPRPRPRPTSNPRP | -0.448 |

| Sequence | shrunken log2 fold change |
| --- | --- |
| RRIRHRPPRLPRPRPRPTSSPRP | -0.0142 |
| RRIRHRPPRLPRPRPRPTSTPRP | -0.199 |
| RRIRHRPPRLPRPRPRPTVVPRP | -0.00918 |
| RRIRHRPPRLPRPRPRPTWPPRP | 0.25 |
| RRIRHRPPRLPRPRPRPTYFPRP | -0.309 |
| RRIRHRPPRLPRPRPRPTYSPRP | -0.489 |
| RRIRHRPPRLPRPRPRPVAVPRP | -0.0993 |
| RRIRHRPPRLPRPRPRPVCIPRP | -1.22 |
| RRIRHRPPRLPRPRPRPVDSPRP | -0.175 |
| RRIRHRPPRLPRPRPRPVEQPRP | 0.0184 |
| RRIRHRPPRLPRPRPRPVFDPRP | -0.0994 |
| RRIRHRPPRLPRPRPRPVFYPRP | -0.751 |
| RRIRHRPPRLPRPRPRPVGFPRP | -0.203 |
| RRIRHRPPRLPRPRPRPVHDPRP | 0.079 |
| RRIRHRPPRLPRPRPRPVHFPRP | -0.011 |
| RRIRHRPPRLPRPRPRPVHQPRP | 0.0507 |
| RRIRHRPPRLPRPRPRPVHWPRP | 0.0039 |
| RRIRHRPPRLPRPRPRPVKMPRP | -0.0874 |
| RRIRHRPPRLPRPRPRPVMNPRP | -0.0175 |
| RRIRHRPPRLPRPRPRPVMTPRP | -0.496 |
| RRIRHRPPRLPRPRPRPVMVPRP | -2.78e-05 |
| RRIRHRPPRLPRPRPRPVNKPRP | -0.579 |
| RRIRHRPPRLPRPRPRPVPAPRP | -0.0665 |
| RRIRHRPPRLPRPRPRPVPPPRP | 0.244 |
| RRIRHRPPRLPRPRPRPVPQPRP | -0.0725 |
